What was measured:
[1] = biological target: T1, Recombinant human CD8ab protein (extracellular domains of CD8a and CD8b with leucine zippers and tags) (human, UniProt P01732 22-182; P10966 22-170); experiment: SPR as in Example 1 (antibody captured, soluble CD8ab as analyte)
T1 construct: extracellular domain; Secreted from HEK293 cells; also called recombinant CD8ab; soluble CD8ab antigen; not shown: acidic leucine zipper; 8x Histidine tag; basic leucine zipper; Strep-tag II
Experimental: (§1) Recombinant human CD8ab protein was generated. […] Antibodies were first captured on an anti-hJgG-Fc CM5 or CM4 surface prepared using the Human Antibody Capture Kit (Cytiva). […] Dissociation was monitored for 5-10 minutes, and the anti-hJgG-Fc surface was regenerated with 3M MgCl2 before recapturing mAb in each subsequent cycle. Binding data were analyzed by Biacore T200 Evaluation Software version 3.2 using a 1:1 binding model.

[2] = biological target: T2, CD8 on human CD8+ T cells (CD3+CD8a+CD8b+ cells of hPBMCs) (human, UniProt P01732 22-235; P10966 22-210); experiment: flow cytometry on human PBMCs, CD8+ T cells (CD3+CD8a+CD8b+), anti-human Fc MFI
T2 construct: whole, on cells; also called CD8ab+ T cells
Experimental: (§2) Binding of CD8ab antibodies to T cells (FIG. 4) and NK cells (FIG. 5) in hPBMCs was detected by staining with anti-human Fc antibody conjugated to APC. Anti-hFc was used to measure the binding of CD8 antibodies containing hFc. Mean fluorescence intensity (MFI) of staining with anti-hFc is used to denote binding. Binding of anti-hFc was determined in CD3+CD8a+CD8b+ cells (CD8+ T cells) and CD3-CD56+CD8a+ cells (CD8+NK cells).
(§3) The binding of CD8ab antibodies on cells was determined by flow cytometry. Freshly isolated PBMCs were incubated with CD8ab antibodies for 2 hours at 4° C. Cells were then stained with antibodies against surface markers CD3 (UCHT1), CD4 (RPA-T4), CD8a (SK1), CD56 (HCD56), and anti-human Fc antibody (HP6017). Anti-human Fc antibody was used to measure the binding of CD8ab antibodies containing hFc. Stained cells were washed and analyzed by flow cytometry and mean fluorescence intensity (MFI) of staining with anti-hFc was used to denote binding.

[3] = biological target: T3, Recombinant CD8b (Sino biological) (human, UniProt P10966 22-170, limits assumed); experiment: ELISA: antigen coated on the plate, antibody titrated, anti-IgG (Fc)-HRP and TMB, A450
T3 construct: also called CD8b alone
Experimental: (§4) Binding specificity of the antibodies was determined by ELISA. […] of recombinant CD8ab, CD8a (Sino biological), CD8b (Sino biological) and ovalbumin (Sigma) or Erb2 (human epidermal growth factor receptor 2) (Sino biological) in PBS were coated onto the maxisorp plate overnight at 4° C. Ovalbumin or Erb2 was used as negative control. Plate was then blocked with casein blocking solution (Thermo Scientific) for 1 hr at room temperature. After blocking, plate was washed with wash buffer (PBS/0.05% Tween-20). Next, dilution of antibody from 30 nM to 0.0009 nM in PBS/0.5% BSA/0.05% Tween-20 was added onto the plate and incubated for 1-2 hr at room temperature. After incubation, plate was washed, and incubated with anti-human IgG (Fc specific)-HRP conjugate or anti-mouse IgG (Fc specific)-HRP conjugate (Jackson Immunoresearch) in PBS/0.5% BSA/0.05% Tween-20 for 1 hr. Binding was detected by adding TMB substrate (SeraCare) to the plate, followed by stopping solution of 0.1M HCl. Binding absorbance was read using GloMax® Discover Microplate Reader (Promega).

[4] = biological target: T1, Recombinant human CD8ab protein …; experiment: as above
Experimental: as §4

[5] = biological target: T4, Recombinant CD8a (Sino biological) (human, UniProt P01732 22-182); experiment: as above
T4 construct: also called CD8a alone
Experimental: as §4

[6] = biological target: T1, Recombinant human CD8ab protein …; experiment: SPR (Biacore T200, 37 C), antibody captured by anti-human IgG Fc, soluble CD8ab as analyte, 1:1 model
Experimental: as §1

[7] = biological target: T5, CD8aa on human CD8+ NK cells (CD3-CD56+CD8a+ cells of hPBMCs) (human, UniProt P01732 22-235); experiment: flow cytometry on human PBMCs, CD8+ NK cells (CD3-CD56+CD8a+), anti-human Fc MFI
T5 construct: whole, on cells; also called CD8aa+ NK cells
Experimental: as §2, §3

[8] = biological target: T4, Recombinant CD8a (Sino biological); experiment: ELISA, coated recombinant CD8a, antibody 30 nM to 0.0009 nM
Experimental: as §4

[9] = biological target: T3, Recombinant CD8b (Sino biological); experiment: ELISA, coated recombinant CD8b
Experimental: as §4

T4 sequence (P01732 22-182 limits assumed): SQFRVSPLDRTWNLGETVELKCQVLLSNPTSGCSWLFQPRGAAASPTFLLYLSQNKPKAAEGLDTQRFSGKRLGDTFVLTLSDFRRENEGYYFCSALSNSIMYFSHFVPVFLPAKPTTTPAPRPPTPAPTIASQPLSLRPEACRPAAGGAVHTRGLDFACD
T1 sequence (P01732 22-182, chain 1 of 2): as the sequence (P01732 22-182 limits assumed) above
T1 sequence (P10966 22-170, chain 2 of 2): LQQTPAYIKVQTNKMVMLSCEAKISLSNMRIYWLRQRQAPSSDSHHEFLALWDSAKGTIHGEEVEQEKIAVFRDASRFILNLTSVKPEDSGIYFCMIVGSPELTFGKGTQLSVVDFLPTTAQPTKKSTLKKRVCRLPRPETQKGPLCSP
T3 sequence (P10966 22-170 limits assumed): as the sequence (P10966 22-170, chain 2 of 2) above
T5 sequence (P01732 22-235): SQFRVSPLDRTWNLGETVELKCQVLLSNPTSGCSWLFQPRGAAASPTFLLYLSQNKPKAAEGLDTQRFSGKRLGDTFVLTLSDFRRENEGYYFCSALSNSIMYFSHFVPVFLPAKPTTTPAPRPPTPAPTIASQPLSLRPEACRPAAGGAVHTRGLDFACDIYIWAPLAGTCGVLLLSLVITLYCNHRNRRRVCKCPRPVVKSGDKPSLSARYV
T2 sequence (P01732 22-235, chain 1 of 2): as the sequence (P01732 22-235) above
T2 sequence (P10966 22-210, chain 2 of 2): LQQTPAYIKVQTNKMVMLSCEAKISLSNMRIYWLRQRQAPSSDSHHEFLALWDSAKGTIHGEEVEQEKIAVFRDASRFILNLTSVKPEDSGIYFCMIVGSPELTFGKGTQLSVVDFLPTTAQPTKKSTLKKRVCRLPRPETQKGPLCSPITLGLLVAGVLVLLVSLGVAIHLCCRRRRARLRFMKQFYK

Kd [1] | koff [1] | kon [1] | Kd [6] | koff [6] | kon [6] | binding result [8] | binding result [9] | Binder | other results
36.4 nM | 0.00386 s⁻¹ | 106000 M⁻¹ s⁻¹ | – | – | – | – | – | xhCD8v10 (antibody, human IgG1, V domains shown, Improved version based on xhCD8v6) VH: EVQLVESGGGLVQPGGSLRLSCAASGFTFSSYAMSWVRQAPGKGLEWVSDITYAGGSTAYADSVKGRFTISRDNAKNSLYLQMNSLRAEDTAVYYCARSNAYAWDDALDIWGQGTMVTVSS VL: not shown | –
52.9 nM | 0.00855 s⁻¹ | 162000 M⁻¹ s⁻¹ | – | – | – | – | – | xhCD8v14 (antibody, human IgG1, V domains shown, Improved version based on xhCD8v6) VH: EVQLVESGGGLVQPGGSLRLSCAASGFTFSSYAMSWVRQAPGKGLEWVSDISYAGGSTAYADSVKGRFTISRDNAKNSLYLQMNSLRAEDTAVYYCARSNAYAWDDALDIWGQGTMVTVSS VL: not shown | –
37.8 nM | 0.00361 s⁻¹ | 95500 M⁻¹ s⁻¹ | – | – | – | – | – | xhCD8v11 (antibody, human IgG1, V domains shown, Improved version based on xhCD8v6) VH: EVQLVESGGGLVQPGGSLRLSCAASGFTFSSYAMSWVRQAPGKGLEWVSDITYAGGSTAYADSVKGRFTISRDNAKNSLYLQMNSLRAEDTAVYYCARSNAYAWDDALDIWGQGTLVTVSS VL: not shown | –
94.3 nM | 0.0175 s⁻¹ | 186000 M⁻¹ s⁻¹ | – | – | – | – | – | xhCD8v15 (antibody, human IgG1, V domains shown, Improved version based on xhCD8v6) VH: EVQLVESGGGLVQPGGSLRLSCAASGFTFSSYAMSWVRQAPGKGLEWVSDISYAGGSTAYADSVKGRFTISRDNAKNSLYLQMNSLRAEDTAVYYCARSNAYAWDDALDIWGQGTLVTVSS VL: not shown | –
– | – | – | 1.08 nM | 0.000922 s⁻¹ | 855000 M⁻¹ s⁻¹ | – | – | xhCD8v7 (antibody, human IgG1, V domains shown) VH: EVQLVESGGGLVQPGRSLRLSCAASGFTFDDYAMHWVRQAPGKGLEWVAVISYDGSNKYYADSVKGRFTISRDNSKNTLYLQMNSLRAEDTAVYYCAKDRIGWYDYDAFDIWGQGTMVTVSS VL: EIVLTQSPATLSVTPGEGATLSCRASHSVGSNLAWYQQKPGQAPRLLIYDASNRATGIPARFSGSGSGTDFTLTISSLEPEDLAVYYCQQRSNWPPTFGQGTRLEIK | EC50 (read off the curve) [2]: ~0.05 nM; binding result [3]: no binding (tested: 30 nM); EC50 (read off the curve) [4]: ~0.09 nM; binding result [5]: no binding (tested: 30 nM); binding result [7]: no binding (tested: 100 nM)
81.8 nM | 0.0301 s⁻¹ | 368000 M⁻¹ s⁻¹ | – | – | – | no binding (tested: 30 nM) | binds | xhCD8v13 (antibody, human IgG1, V domains shown, Improved version based on xhCD8v2) VH: QVQLVQSGAEVKKPGSSVKVSCKASGGTFSSYAISWVRQAPGQGLEWMGGIIPGYATANYAQKFQGRVTITADESTSTAYMELSSLRSEDTAVYYCARDAAGIRLFADWGQGTLVTVSS VL: DIQMTQSPSSLSASVGDRVTITCRASQEIYGALNWYQQKPGKAPKLLIYGATNLQSGVPSRFSGSGSGTDFTLTISSLQPEDFATYYCQSTYDAPWTFGGGTKVEIK | –
– | – | – | 72.3 nM | 0.0379 s⁻¹ | 524000 M⁻¹ s⁻¹ | no binding (tested: 30 nM) | binds | xhCD8v3 (antibody, human IgG1, V domains shown) VH: QVQLVQSGAEVKKPGSSVKVSCKASGSRFYKFAISWVRQAPGQGLEWMGGIIPGHAKANYAQKFQGRVTITADESTSTAYMELSSLRSEDTAVYYCARDGLGIRLFADWGQGTLVTVSS VL: DIQMTQSPSSLSASVGDRVTITCRASQEIYGALNWYQQKPGKAPKLLIYGATNLQSGVPSRFSGSGSGTDFTLTISSLQPEDFATYYCQDIYDAPWTFGGGTKVEIK | –
105 nM | 0.0271 s⁻¹ | 259000 M⁻¹ s⁻¹ | – | – | – | – | – | xhCD8v12 (antibody, human IgG1, V domains shown, Improved version based on xhCD8v2) VH: QVQLVQSGAEVKKPGSSVKVSCKASGGTFSSYAISWVRQAPGQGLEWMGGIIPGYATANYAQKFQGRVTITADESTSTAYMELSSLRSEDTAVYYCARDAAGIRLFADWGQGTLVTVSS VL: DIQMTQSPSSLSASVGDRVTITCRASQSIYGALNWYQQKPGKAPKLLIYGASNLQSGVPSRFSGSGSGTDFTLTISSLQPEDFATYYCQSTYTAPWTFGGGTKVEIK | EC50 (read off the curve) [3]: ~0.05 nM; EC50 (read off the curve) [4]: ~0.02 nM; binding result [5]: no binding (tested: 30 nM)
– | – | – | 41.6 nM | 0.02 s⁻¹ | 483000 M⁻¹ s⁻¹ | – | – | xhCD8v2 (antibody, human IgG1, V domains shown) VH: QVQLVQSGAEVKKPGSSVKVSCKASGYRFHNFAISWVRQAPGQGLEWMGGIIPGHAKANYAQKFQGRVTITADESTSTAYMELSSLRSEDTAVYYCARDGLGIRLFADWGQGTLVTVSS VL: DIQMTQSPSSLSASVGDRVTITCRASQEIYGALNWYQQKPGKAPKLLIYGATNLQSGVPSRFSGSGSGTDFTLTISSLQPEDFATYYCQDIYDAPWTFGGGTKVEIK | EC50 (read off the curve) [3]: ~0.06 nM; EC50 (read off the curve) [4]: ~0.03 nM; binding result [5]: no binding (tested: 30 nM)
121 nM | 0.0273 s⁻¹ | 225000 M⁻¹ s⁻¹ | – | – | – | no binding (tested: 30 nM) | binds | xhCD8v9 (antibody, human IgG1, V domains shown, Improved version based on xhCD8v2) VH: QVQLVQSGAEVKKPGSSVKVSCKASGGTFSSYAISWVRQAPGQGLEWMGGIIPGAATANYAQKFQGRVTITADESTSTAYMELSSLRSEDTAVYYCARDAAGIRLFADWGQGTLVTVSS VL: DIQMTQSPSSLSASVGDRVTITCRASQEIYGALNWYQQKPGKAPKLLIYGATNLQSGVPSRFSGSGSGTDFTLTISSLQPEDFATYYCQSTYDAPWTFGGGTKVEIK | –
– | – | – | 137 nM | 0.0493 s⁻¹ | 360000 M⁻¹ s⁻¹ | no binding (tested: 30 nM) | binds | xhCD8v4 (antibody, human IgG1, V domains shown) VH: QVQLVQSGAEVKKPGSSVKVSCKASGYTFTKYAISWVRQAPGQGLEWMGGIIPGHAKANYAQKFQGRVTITADESTSTAYMELSSLRSEDTAVYYCARDGLGIRLFADWGQGTLVTVSS VL: DIQMTQSPSSLSASVGDRVTITCRASQKIYGALNWYQQKPGKAPKLLIYGATNLQSGVPSRFSGSGSGTDFTLTISSLQPEDFATYYCQNTYDTPWTFGGGTKVEIK | –
– | – | – | 117 nM | 0.0419 s⁻¹ | 357000 M⁻¹ s⁻¹ | no binding (tested: 30 nM) | binds | xhCD8v5 (antibody, human IgG1, V domains shown) VH: QVQLVQSGAEVKKPGSSVKVSCKASGSGFRGHAISWVRQAPGQGLEWMGGIIPGHAKANYAQKFQGRVTITADESTSTAYMELSSLRSEDTAVYYCARDGLGIRLFADWGQGTLVTVSS VL: DIQMTQSPSSLSASVGDRVTITCRASQKIYGALNWYQQKPGKAPKLLIYGATNLQSGVPSRFSGSGSGTDFTLTISSLQPEDFATYYCQNTYDTPWTFGGGTKVEIK | –
